This passage reports binding result and Ki results from article PMC10044410 (Cell, 2023).

In assay [1] the target is GroEL (wild type, recombinant, from pET22b-groL) (E. coli, UniProt P0A6F5 1-548). Nature of the assay: SEC. For orientation: SEC sorts molecules by how far they enter the pores of the column.
Assay [2] addresses GroEL_(R452A/E461A/S463A/V464A) (E. coli, UniProt P0A6F5 1-548, R452A | E461A | S463A | V464A). Nature of the assay: SEC.
For assay [3], the target named is GroEL (untagged, from pET15b, for quantitative binding studies) (E. coli, UniProt P0A6F5 1-548). Nature of the assay: other fluorescence titration.

B1: Citrate synthase (CS) from pig hearts, chemically unfolded (enzyme, UniProt P00889 28-464, looked up)
chain: ASSTNLKDILADLIPKEQARIKTFRQQHGNTVVGQITVDMMYGGMRGMKGLVYETSVLDPDEGIRFRGYSIPECQKMLPKAKGGEEPLPEGLFWLLVTGQIPTEEQVSWLSKEWAKRAALPSHVVTMLDNFPTNLHPMSQLSAAITALNSESNFARAYAEGIHRTKYWELIYEDCMDLIAKLPCVAAKIYRNLYREGSSIGAIDSKLDWSHNFTNMLGYTDAQFTELMRLYLTIHSDHEGGNVSAHTSHLVGSALSDPYLSFAAAMNGLAGPLHGLANQEVLVWLTQLQKEVGKDVSDEKLRDYIWNTLNSGRVVPGYGHAVLRKTDPRYTCQREFALKHLPHDPMFKLVAQLYKIVPNVLLEQGKAKNPWPNVDAHSGVLLQYYGMTEMNYYTVLFGVSRALGVLAQLIWSRALGFPLERPKSMSTDGLIKLVDSK
As for B1, in assay [1], the binding result is reported as “binds”.

B2: CnoX (wild type, recombinant, from pET22b-cnoX) (natural protein, E. coli)
chain: MSVENIVNINESNLQQVLEQSMTTPVLFYFWSERSQHCLQLTPILESLAAQYNGQFILAKLDCDAEQMIAAQFGLRAIPTVYLFQNGQPVDGFQGPQPEEAIRALLDKVLPREEELKAQQAMQLMQESNYTDALPLLKDAWQLSNQNGEIGLLLAETLIALNRSEDAEAVLKTIPLQDQDTRYQGLVAQIELLKQAADTPEIQQLQQQVAENPEDAALATQLALQLHQVGRNEEALELLFGHLRKDLTAADGQTRKTFQEILAALGTGDALASKYRRQLYALLY
For the molecule B2, the binding result in assay [2] is “binds”.

B3: GroES (for quantitative binding studies, His tag removed) (natural protein, E. coli)
chain: MNIRPLHDRVIVKRKEVETKSAGGIVLTGSAAAKSTRGEVLAVGNGRILENGEVKPLDVKVGDIVIFNDGYGVKSEKIDNEEVLIMSESDILAIVEA
The Ki is a dissociation constant, usually derived from enzyme kinetics or from competition with a known ligand. Low values mean tighter binding, high ones weaker binding. For the molecule B3, the Ki in assay [3] was determined as 47 nM.
